B1: PU.1 motif oligo 10 (dsDNA)
DNA 1: ACGTCACTTCCTGTTTACGT
DNA 2: ACGTAAACAGGAAGTGACGT
B2: PU.1 motif oligo 75 (dsDNA)
DNA 1: ACGTCAGTTCTGCATTACGT
DNA 2: ACGTAATGCAGAACTGACGT
B3: PU.1 motif oligo 72 (dsDNA)
DNA 1: ACGTAATTTCCTCATCACGT
DNA 2: ACGTGATGAGGAAATTACGT
B4: PU.1 motif oligo 9 (dsDNA)
DNA 1: ACGTCACTTCCTCTCAACGT
DNA 2: ACGTTGAGAGGAAGTGACGT
B5: PU.1 motif oligo 65 (dsDNA)
DNA 1: ACGTTTCTTCCTCTTCACGT
DNA 2: ACGTGAAGAGGAAGAAACGT
B6: PU.1 motif oligo 61 (dsDNA)
DNA 1: ACGTATCTTCCTCATAACGT
DNA 2: ACGTTATGAGGAAGATACGT
B7: PU.1 motif oligo 8 (dsDNA)
DNA 1: ACGTCACTTCCCCTTAACGT
DNA 2: ACGTTAAGGGGAAGTGACGT
B8: PU.1 motif oligo 68 (dsDNA)
DNA 1: ACGTGACTTCTGCTTTACGT
DNA 2: ACGTAAAGCAGAAGTCACGT
B9: PU.1 motif oligo 71 (dsDNA)
DNA 1: ACGTTGCTTCCTCCCTACGT
DNA 2: ACGTAGGGAGGAAGCAACGT
B10: PU.1 motif oligo 66 (dsDNA)
DNA 1: ACGTCAGTTCTCTTTTACGT
DNA 2: ACGTAAAAGAGAACTGACGT
B11: PU.1 motif oligo 62 (dsDNA)
DNA 1: ACGTCTCTTCCTCCCTACGT
DNA 2: ACGTAGGGAGGAAGAGACGT
B12: PU.1 motif oligo 70 (dsDNA)
DNA 1: ACGTATCTTCCTCACTACGT
DNA 2: ACGTAGTGAGGAAGATACGT
B13: PU.1 motif oligo 64 (dsDNA)
DNA 1: ACGTGACTTCCACAATACGT
DNA 2: ACGTATTGTGGAAGTCACGT
B14: PU.1 motif oligo 63 (dsDNA)
DNA 1: ACGTCACTTCCACAGTACGT
DNA 2: ACGTACTGTGGAAGTGACGT
B15: PU.1 motif oligo 67 (dsDNA)
DNA 1: ACGTGACTTCCTTCACACGT
DNA 2: ACGTGTGAAGGAAGTCACGT
B16: PU.1 motif oligo 74 (dsDNA)
DNA 1: ACGTCTCTTCCTTAAAACGT
DNA 2: ACGTTTTAAGGAAGAGACGT
B17: PU.1 motif oligo 73 (dsDNA)
DNA 1: ACGTAACTTCTTCAAAACGT
DNA 2: ACGTTTTGAAGAAGTTACGT
B18: PU.1 motif oligo 69 (dsDNA)
DNA 1: ACGTCAGTTCTGCTTTACGT
DNA 2: ACGTAAAGCAGAACTGACGT

molecular target: PU.1 (human, UniProt P17947 1-270); experiment: MST; MST: 20 mM Tris-HCl pH 7.6, 1.5 mM MgCl2, 0.5 mM EGTA, 10% glycerol, 300 mM KCl, 10 mM DTT, 25 C; 50 nM Cy3-dsDNA, PU.1 1:1 dilutions from 23 uM; details: protein: recombinant; tags: N-terminal His-tag; label: Cy3 on upper strand

Binder	Kd [nM]
B1	175 ± 16
B2	1190 ± 140
B3	1080 ± 251
B4	676 ± 67
B5	872 ± 57
B6	790 ± 77
B7	441 ± 18
B8	828 ± 51
B9	2200 ± 1640
B10	2000 ± 40
B11	1940 ± 1260
B12	2020 ± 100
B13	1220 ± 350
B14	1930 ± 220
B15	1240 ± 370
B16	1150
B17	1520 ± 580
B18	909 ± 28
